Measured values from the supplement of paper PMC11908140.

B1: library; numbered along this chain (parent)
chain: MRKPRAAVGSGHRKQAASQEGRQKHAKNNSQAKPSACDGLARQPEEVVLQASVSSYHLFRDVAEVTAFRGSLLSWYDQEKRDLPWRRRAEDEMDLDRRAYAVWVSEVMLQQTQVATVINYYTGWMQKWPTLQDLASASLEEVNQLWAGLGYYSRGRRLQEGARKVVEELGGHMPRTAETLQQLLPGVGRYTAGAIASIAFGQATGVVDGNVARVLCRVRAIGADPSSTLVSQQLWGLAQQLVDPARPGDFNQAAMELGATVCTPQRPLCSQCPVESLCRARQRVEQEQLLASGSLSGSPDVEECAPNTGQCHLCLPPSEPWDQTLGVVNFPRKASRKPPREESSATCVLEQPGALGAQILLVQRPNSGLLAGLWEFPSVTWEPSEQLQRKALLQELQRWAGPLPATHLRHLGEVVHTFSHIKLTYQVYGLALEGQTPVTTVPPGARWLTQEEFHTAAVSTAMKKVFRVYQGQQPGTCMGSKRSQVSSPCSRKKPRMGQQVLDNFFRSHISTDAHSLNSAAQ

Variants of: B1
Test: 8OG:A repair function score (normalized; synonymous = 0, nonsense = -1) (normalized log-likelihood score); higher = more repair activity (WT-like)
Settings: with 8OG:A DNA repair reporter (GFP) in HEK-293 MUTYH KO cells
Procedure, shortened: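 Per-tile Rosace fitness scores were converted to a normalized repair function score anchored on synonymous and nonsense distributions. That scale puts synonymous medians at 0 and nonsense medians at -1. Variants with starting counts under 300 counts per million were discarded. Input came from sorting viable mCherry+ MUTYH knockout HEK-293 cells, carrying lentiviral MUTYH cDNA NNN codon-scan libraries in 10 pg/ml doxycycline and an 8OG:A GFP repair reporter, into GFP+ and GFP− bins at 72 h, three replicates per tile, followed by tile amplicon sequencing.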
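Also: cells sorted at 72 h after reporter transfection.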

8OG:A repair function score: each site, then its substitutions
G186: C -0.439 | F -1.04 | K -0.9 | D -0.855 | M -0.885 | E -0.989 | I -1.23 | W -1.08 | P -0.924 | R -1.16 | Q -0.401 | N -0.814 | V -0.852 | A -0.672 | T -0.373 | L -1.02 | H -0.754 | Y -0.992 | S -0.34
G193: L -0.637 | A -0.0458 | H -0.0997 | I -0.531 | M -0.156 | F -0.465 | K -0.203 | D -0.37 | E -0.722 | C 0.0546
L184: A -0.718 | Y -0.855 | H -1.05 | V -0.238 | I -0.0822 | M -0.281 | R -1.2 | N -0.987 | P -1.21 | Q -0.899 | C -0.317 | K -0.925 | G -0.899 | D -1.16 | F -0.304 | S -0.911 | T -0.62 | W -1.13 | E -1.09
R175: D -0.192 | W -0.356 | N -0.0345 | T -0.00924 | C -0.0695 | K -0.133 | G -0.166 | E 0.0279 | L -0.252 | F -0.197 | V -0.148 | A -0.0909 | Y -0.175 | S -0.0258 | Q 0.0309 | I -0.189 | H -0.116 | P -0.229 | M -0.155
T179: P -0.236 | V -0.0453 | E -0.0168 | G 0.108 | C -0.0042 | N -0.0369 | R 0.0462 | A -0.088 | D 0.248 | Y -0.146 | Q -0.0228 | K 0.0976 | M 0.0538 | W -0.0647 | F -0.0885 | I -0.04 | L 0.0629 | H 0.0778 | S 0.00681
E178: H -0.0501 | F -0.0911 | N 0.0803 | A 0.0541 | Y 0.00398 | S -0.037 | P -0.125 | K 0.0383 | M 0.0407 | I -0.0162 | R 0.0879 | L -0.106 | C -0.0388 | T 0.0829 | W -0.0455 | V -0.12 | D -0.000297 | Q -0.0318 | G -0.126
T176: P -0.429 | V -0.285 | F -0.157 | I -0.31 | Q -0.0945 | M -0.28 | R -0.102 | A -0.251 | E -0.128 | W -0.419 | G -0.216 | H -0.0301 | N 0.0341 | L -0.174 | C -0.0512 | D 0.00933 | K -0.0846 | S -0.0317 | Y -0.16
Q181: R -0.0552 | K -0.0739 | H -0.175 | I -0.0381 | W -0.337 | A -0.034 | C -0.121 | Y 0.00604 | L -0.0425 | T -0.0945 | E 0.0231 | P -0.726 | V -0.114 | F -0.0623 | S -0.0472 | M -0.0648 | D -0.331 | G -0.165 | N -0.118
Q182: I -0.0148 | V -0.022 | F -0.161 | C -0.0792 | P -0.18 | N -0.133 | E -0.0278 | R -0.0127 | D -0.0172 | W -0.114 | Y 0.00409 | K 0.129 | G -0.00226 | L -0.0117 | S 0.0262 | T -0.0374 | M -0.0488 | A 0.0281 | H 0.0507
V187: L -0.609
G188: K -1.11 | A -0.365 | W -1.02 | D -1.09 | C -0.839 | M -0.929 | N -0.923 | L -0.95 | R -0.844 | Q -0.909 | F -1.06 | Y -0.89 | E -0.866 | S -0.643 | T -1.03 | H -0.662 | V -1.04 | P -0.845 | I -1.11
P185: W -0.553 | D -0.333 | K -0.102 | Y -0.363 | G -0.141 | A -0.225 | L -0.344 | Q -0.197 | E -0.168 | R -0.264 | V -0.299 | C -0.242 | I -0.275 | N -0.12 | S -0.221 | F -0.285 | M -0.282 | H -0.43 | T -0.242
P174: Y -0.958
A192: W -1.16 | S -0.166 | C -0.572 | D -0.927 | N -0.876 | T -1.07 | L -1.11 | F -1.12 | V -0.943 | G -0.105 | Q -1.03 | H -0.926 | M -0.964 | P -1.17 | R -0.901 | I -1.07 | Y -1.07 | E -0.908 | K -1.07
T191: M -0.127 | G -0.428 | R -1.16 | I -0.0338 | L -0.585 | W -1.2 | V -0.236 | K -1.26 | A -0.325 | E -0.898 | Y -1.07 | P -0.924 | N -0.68 | D -1.01 | C -0.351 | S -0.16 | Q -0.768 | F -1.01 | H -0.486
A177: S -0.1 | R -0.127 | Q -0.125 | I -0.142 | C -0.0436 | P -0.0959 | H -0.14 | V -0.207 | G -0.166 | M -0.0819 | W -0.324 | L -0.213 | E -0.368 | N -0.0568 | K -0.0185 | T -0.226 | Y -0.194 | F -0.273 | D -0.363
L180: F -0.576 | R -1.18 | V -0.497 | K -0.838 | N -1.02 | S -0.679 | Y -0.571 | E -0.764 | P -1.03 | T -0.439 | H -1.24 | C -0.258 | G -0.785 | A -0.223 | D -1.1 | I -0.119 | Q -0.655 | W -0.713
Y190: Q -0.567 | I -0.823 | V -0.566 | M -0.762 | G -0.381 | F -0.574 | R -1.06 | K -1.27 | S -0.22 | P -0.905 | E -0.808 | L -0.851 | W -0.479 | D -0.858 | H -0.198 | C -0.373 | T -0.419 | A -0.38 | N -0.443
R189: F -0.222 | N -0.421 | E -0.385 | K -0.0681 | Y -0.336 | S -0.0964 | Q -0.208 | P 0.136 | L -0.316 | T -0.184 | V -0.148 | D -0.22 | W -0.343 | G -0.299 | A -0.136 | I -0.335 | M -0.341 | H -0.228 | C -0.258
L183: K -0.0447 | T -0.0372 | P -0.826 | V 0.0213 | E -0.0475 | N -0.102 | S 0.0487 | R -0.105 | Q 0.0196 | H 0.0988 | D -0.21 | C -0.208 | M -0.13 | F -0.0771 | Y 0.0742 | W -0.0703 | A -0.0103 | I -0.112 | G -0.0301
